The values that follow come from US12201679B2, “Epitope-targeted peptide immunostimulants” (priority 2019, dated 2025).

“Also recorded” adds a separate entry of the source. Ends that are not written are not given here.

Data set [1] relates to K. pneumoniae cells (strain BAA 1705). The experiment in a line: Gentamicin protection assay: phagocytosis and opsonophagocytic killing (OPK) by macrophages. The format is cell-based, Klebsiella pneumoniae. The following applies: 1 h, FIG. 7B. The method, then:
It also tested whether DNP-conjugated EPIs could promote the opsonophagocytic killing (OPK) of K. pneumoniae by macrophages. This was tested by using an OPK assay. Briefly, K. pneumoniae cells were treated with EPI and then anti-DNP antibody before being exposed to macrophages for either 6 or 24 hours. During this incubation period, macrophages that recognize K. pneumoniae cells will phagocytose them, and phagocytosed bacteria will remain viable for up to 6 hours, but within 24 hours are rendered inviable by OPK. Thus, macrophages were isolated after 6 and 24 hours of incubation with K. pneumoniae, lysed them, and plated and grew the lysate, which yielded bacterial colonies that reflect the phagocytosis (at 6 hrs) or OPK (at 24 hrs) of bacteria.
Given that cy(LLFFF)-DNP (SEQ ID NO:5) recruits antibodies to K. pneumoniae surfaces, it was expected that K. pneumoniae opsonized in this manner would be more susceptible to phagocytosis by macrophages. AR-PCC-driven phagocytosis and OPK were quantified by a gentamicin protection assay, as depicted in FIG. 7A. For this assay, K. pneumoniae cells (strain BAA 1705) were treated with cy(LLFFF)-DNP (SEQ ID NO:5), opsonized by anti-DNP antibodies, and then incubated with murine bone-marrow-derived macrophages (BMDMs). BMDMs were subsequently exposed to a solution containing gentamicin, to which K. pneumoniae strain BAA 1705 is susceptible, to kill any extracellular bacteria. Phagocytosed bacteria remain viable inside BMDMs for at least 1 h, yet are rendered inviable after 24 h by OPK (FIG. 13). Macrophages harvested at 1 h and 24 h were lysed and plated to generate bacterial colonies, which were enumerated to quantify phagocytosis and OPK.
Klebsiella pneumoniae BAA1705 was treated with DNP-PCCs followed by incubation with anti-DNP antibody, as described above in the “Cell-Based ELISAs” section. These opsonized bacteria were then used to infect BMDMs at a multiplicity of infection of 50 for 0.5 h at 37° C. Bacteria were then washed by using RPMI 1640 Media and BMDMs were left in cell culture medium containing gentamicin (100 μg/ml). After 1 h and 24 h BMDMs were washed to remove gentamicin and intracellular bacteria were harvested by lysing BMDMs in RPMI media containing 0.2% Triton X 100. Bacterial CFUs were enumerated by plating onto LB agar. Bacterial counts at 1 h indicated the degree of opsonization while those at 24 h served as a measure of microbicidal activity of macrophages. For these measurements, anti-MrkA antibody and K. pneumoniae antiserum were used at dilutions of 5 μg/mL each.

The target of data set [2] is full-length recombinant MrkA protein (Klebsiella pneumoniae, UniProt P12267). In kind it is binding. The following applies: ratio of ELISA signals, FIG. 4B. From the text: HPraGly is present before X1 in each peptide and Az4 follows X5 in each peptide.
Chain of full-length recombinant MrkA protein (P12267 23-202): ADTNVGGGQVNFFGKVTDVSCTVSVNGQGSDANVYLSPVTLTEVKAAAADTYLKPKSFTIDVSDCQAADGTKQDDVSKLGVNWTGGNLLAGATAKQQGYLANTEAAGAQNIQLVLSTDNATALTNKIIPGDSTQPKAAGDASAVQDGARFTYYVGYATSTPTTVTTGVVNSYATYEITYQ
In data set [3] the test system is K. pneumoniae (strains BAA 1705 & 2146). Put plainly: Whole-cell ELISA, biotinylated PCC, multidrug-resistant K. pneumoniae. In kind it is cell-based, Klebsiella pneumoniae. The following applies: whole-cell ELISA, FIG. 5C. The protocol:
Detection of the binding of biotinylated PCCs to bacterial surface was performed as follows. 10^8 bacteria from a culture grown overnight were used for each test. […] After washing thrice with PBS to remove unbound PCCs, bacteria were incubated with Streptavidin-HRP (1:1000) for 1 h at 37° C. Bacteria were washed thoroughly and the TMB reagent was added until visible coloration was observed. The reaction was quenched using 2N H2SO4 and absorbance was measured at 450 nm.
(In general: An ELISA detects its analyte on a solid surface through an enzyme-linked reagent.)

The nature of data set [4]: Isocratic point, elution from C18 prep-scale column. In kind it is physicochemical. The method, then: PCC compounds were purified on a Waters Autopurification system, which isolated compounds based on MS peaks corresponding to protonated [M+1H]^+ and [M+2H]^2+, and/or sodium adducts [M+Na]^+ and [M+2Na]^2+. The isocratic points of PCCs were determined based on the elution of the compound from a C18 prep-scale column. Synthetic epitopes were either purified on the Waters Autopurification System, or by semi-preparative HPLC and then using matrix-assisted laser desorption/ionization mass spectroscopy to identify fractions with the desired m/z ratio. The resulting peptides were lyophilized, the yield determined by mass difference or UV-visible absorbance, and resuspended at a concentration of up to 10 mM peptide in DMSO. Peptides were stored at −80° C. before thawing for each use.

For the next data set, the target named is MrkA protein (Klebsiella pneumoniae, UniProt P12267). The experiment in a line: Sandwich ELISA, MrkA binding in mouse sera. The following applies: MrkA 250 nM in 10 and 100% mouse sera. From the text: By comparison, the addition of polyarginine tags reduced the IP to near 40% without substantial loss in MrkA avidity (three leftmost data points in FIG. 4B).
Chain of MrkA protein (P12267 23-202): as above

Take “cy(LLFFF)+R6 (LLFFFRRRRRR; also: cyclic over residues 1-5, ring closure not given here)”: the “phagocytosis at 1 h, DNP-tagged AR-PCC plus anti-DNP (words)” value is recorded as “also enhanced phagocytosis” in data set [1] and “comparable to that of cy(LLFFF)-DNP” in data set [1] (listed as cy(LLFFF)-R6). Besides, in data set [2], the “stronger affinity to MrkA over cy(LLFFF)” value is listed as 22%. For the same substance, the “binding selectivity towards MrkA-expressing K. pneumoniae cells versus E. coli and S. typhimurium” value in data set [3] was “similarly high selectivity”. In addition, the “isocratic point (IP)” value in data set [4] is on record as approximately 40%. Also, the “reduction (improvement) in IP versus cy(LLFFF)” value in data set [4] was approximately 35%. Also, in the data set with MrkA protein, the “binding to MrkA protein in mouse sera” value is “binds MrkA protein in the context of sera; also recorded: bound MrkA protein in solutions of 10 and 100% mouse sera”.
